Changes are numbered by the printed parent chain.
B1: 35NIDmAb (antibody, V domains shown)
VH: VQLVESGPELKKPGETVKISCKASGYTFTNYGMNWVKQAPGKGLKWMGWINTYTGEPTFADDFKGRFAFSLETSASTAYLQINNLKNEDTATYFCARYGYSWAMDYWGQGTSVTVSS
VL: DIVMTQSPAIMSASPGEKVTMTCSASSSVSYMHWYQQKSGTSPKRWIYDTSKLASGVPARFSGSGSGTSYSLTISSMEAEDAATYYCQQWSSNPPITFGAGTKLEIK
notes: Mouse monoclonal antibody from hybridoma ascites; also called AE001-VH+VL; AE001-VH+VL (35NIDmAb)
B2: IFP35 NID (other)
chain: IQVMSQLSGRRVLVTGFPASLRLSEEELLDKLEIFFGKTRNGGGDVDVRELLPGSVMLGFARDGVAQRLCQIGQFTVPLGGQQVPLRVSPYVNGEIQ
notes: also called NID domain of IFP35 (a fragment consisting of amino acids at positions 124-220); antigen IFP35 NID
B3: AE001-H3+L3 (antibody, V domains shown)
VH: QVQLVQSGAEVKKPGASVKVSCKASGYTFTNYGMNWVRQAPGQGLEWMGWINTYTGEPTVAQKFQGRFTFTLDTSTSTAYLELSSLRNEDTAVYFCARYGYSWAMDYWGQGTSVTVSS
VL: DIQMTQSPSSLSASVGDRVTITCQASSSVSYMHWYQQKPGKAPKRLIYDTSKLASGVPSRFSGSGSGTDYTLTISSLQPEDIATYYCQQWSSNPPITFGAGTKLEIK
notes: The same doubt about the 'constant region' label applies as for AE001-H1+L1; also called AE001H3 + AE001L3; humanized antibody
B4: AE001-H1+L1 (antibody, V domains shown)
VH: B3 VH with Q6E, V20I, R38K, E46K, V60F, K63D, T76A, E82Q, L83I
VL: B3 VL with L11M, I21M, A42S, L46W, L77M
notes: also called AE001H1 + AE001L1; humanized antibody
B5: AE001-8 (antibody, human IgG1, V domains shown)
VH: B3 VH
VL: B3 VL with S92P, N93L
notes: Human IgG1; CDR mutant of AE001-H3+L3; also called AE001-6Hc + 8Lc; AE001-6HC + 8LC
B6: AE001-7 (antibody, human IgG1, V domains shown)
VH: B3 VH
VL: B3 VL with P94S, P95W, I96S
notes: Human IgG1; CDR mutant of AE001-H3+L3; also called AE001-6Hc + 7Lc; AE001-6HC + 7LC
B7: AE001-9 (antibody, human IgG1, V domains shown)
VH: B3 VH
VL: B3 VL with S92P, N93R
notes: Human IgG1; CDR mutant of AE001-H3+L3; also called AE001-6Hc + 9Lc; AE001-6HC + 9LC
B8: AE001-H2+L2 (antibody, V domains shown)
VH: B3 VH with V20I, V60F, L83I
VL: B3 VL with I21M, L46W, L77M
notes: Humanized form of 35NIDmAb with the same CDRs; The same doubt about the 'constant region' label applies as for AE001-H1+L1; also called AE001H2 + AE001L2; humanized antibody
B9: AE001-6 (antibody, human IgG1, V domains shown)
VH: B3 VH
VL: B3 VL with S92P, N93Y
notes: Human IgG1; CDR mutant of AE001-H3+L3; also called AE001-6Hc + Lc; AE001-6HC + LC

Assays:
[1] = target: B2; assay: method not stated
[2] = target: T1, human IFP35 protein (human, UniProt P80217 1-286, limits assumed); assay: ELISA (OD450) on human IFP35 protein
T1 construct: also called interferon-induced protein 35; IFI35
T1 chain: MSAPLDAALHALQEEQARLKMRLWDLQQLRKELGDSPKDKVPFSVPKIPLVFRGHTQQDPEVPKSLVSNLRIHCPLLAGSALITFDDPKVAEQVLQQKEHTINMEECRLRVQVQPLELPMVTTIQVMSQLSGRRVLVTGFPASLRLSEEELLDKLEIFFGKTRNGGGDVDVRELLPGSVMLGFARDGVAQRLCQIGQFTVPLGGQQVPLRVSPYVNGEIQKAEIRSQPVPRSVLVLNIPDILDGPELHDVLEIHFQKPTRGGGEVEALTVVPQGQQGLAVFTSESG

[3] = target: the molecule itself; assay: crystal structure of IFP35 NID alone
[4] = target: T1, human IFP35 protein; assay: affinity kinetics (fortebio), antibody loaded
[5] = target: T1, human IFP35 protein; assay: ELISA (OD450) on antigen IFP35
[6] = target: T1, human IFP35 protein; assay: affinity kinetics (fortebio); upper end given to the clone said to show the best improvement

For B1, the Kd [1] was 28 nM and the “EC50 (read off the curve)” value [2] was about 0.06 mg/L.

B2: binds [3].

B3 was tested, and the Kd [4] was 13.9 nM, the koff [4] was 0.00201 s⁻¹ and the kon [4] was 145000 M⁻¹ s⁻¹. For the same binder, the “EC50 (read off the curve)” value [2] was about 0.2 mg/L.

In the case of B4, the “EC50 (read off the curve)” value [2] is reported as about 0.05 mg/L.

With B5 the “EC50 (read off the curve)” value [5] was about 0.2 mg/L, the Kd [4] was 2.99 nM and the koff [4] was 0.00044 s⁻¹. For the same binder, the kon [4] was 147000 M⁻¹ s⁻¹ and the “fold increase in affinity against AE001-H3+L3” value [6] was 2.5 to 4.6 fold.

B6 was tested, and the “EC50 (read off the curve)” value [5] was about 0.2 mg/L, the Kd [4] was 3.46 nM and the koff [4] was 0.000524 s⁻¹. It also gave a kon [4] of 151000 M⁻¹ s⁻¹.

B7 was tested, and the “EC50 (read off the curve)” value [5] was about 0.2 mg/L, the Kd [4] was 3.04 nM and the koff [4] was 0.000454 s⁻¹. For the same binder, the kon [4] was 149000 M⁻¹ s⁻¹.

B8 was tested, and the “EC50 (read off the curve)” value [2] was about 0.08 mg/L.

In the case of B9, the “EC50 (read off the curve)” value [5] is reported as about 0.1 mg/L, the Kd [4] is reported as 3.35 nM and the koff [4] is reported as 0.000508 s⁻¹. The kon [4] was 152000 M⁻¹ s⁻¹.

From patent US12473352 (SUN YAT SEN UNIVERSITY, dated 2025)
